Assay results: article PMC8067709, “Crystal Structure of the Epo1-Bem3 Complex for Bud Growth” (International Journal of Molecular Sciences, 2021)

B1: Bem3^CC1 (1-99) with 6xHis tag, isolated protein [Saccharomyces cerevisiae] / itself (parent)
chain: MTDNLTTTHGGSTTLELLAQYNDHRSKKDKSIEHIEKGTCSGKERNPSYDEIFTENIKLKLQVQEYETEIESLEKVIDMLQKNREASLEVVLEQVQNDS

Variants of: B1
Assay: SEC-MALS (MALS coupled with gel filtration)
Conditions: read off a plot

Variant	molar mass [kDa]
MTDNLTTTHGGSTTLELLAQYNDHRSKKDKSIEHIEKGTCSGKERNPSYDEIFTEAIKLKLQVQEYATEIESLEKVIDMLQKNREASLEVVLEQVQNDS [chain 1 N56A E67A]	18
MTDNLTTTHGGSTTLELLAQYNDHRSKKDKSIEHIEKGTCSGKERNPSYDEIFTENIKLKLQVQEYATEIESLEKVIDMLQKNREASLEVVLEQVQNDS [chain 1 E67A]	20
MTDNLTTTHGGSTTLELLAQYNDHRSKKDKSIEHIEKGTCSGKERNPSYDEIFTEAIKLKLQVQEYETEIESLEKVIDMLQKNREASLEVVLEQVQNDS [chain 1 N56A]	17
MTDNLTTTHGGSTTLELLAQYNDHRSKKDKSIEHIEKGTCSGKERNPSYDEIFTENIKLKLQVQEAETEIESLEKVIDMLQKNREASLEVVLEQVQNDS [chain 1 Y66A]	19
MTDNLTTTHGGSTTLELLAQYNDHRSKKDKSIEHIEKGTCSGKERNPSYDEIFTEAIKLKLQVQEAATEIESLEKVIDMLQKNREASLEVVLEQVQNDS [chain 1 N56A Y66A E67A]	9.5
MTDNLTTTHGGSTTLELLAQYNDHRSKKDKSIEHIEKGTCSGKERNPSYDEIFTEAIKLKLQVQEAETEIESLEKVIDMLQKNREASLEVVLEQVQNDS [chain 1 N56A Y66A]	10
